The source of these data is patent US20260250421A1.

The assay addresses His-tagged dog TROP2 protein (dog). Put plainly: SPR Biacore 8K, Ab on Protein A chip. On the technique in general: SPR reads the build-up and loss of mass on a sensor chip optically.

Residue numbers refer to the chain shown, from its start.

B1: DS-1062 analog-LALA (antibody, V domains shown)
VH: QVQLVQSGAEVKKPGASVKVSCKASGYTFTTAGMQWVRQAPGQGLEWMGWINTHSGVPKYAEDFKGRVTISADTSTSTAYLQLSSLKSEDTAVYYCARSGFGSSYWYFDVWGQGTLVTVSS
VL: DIQMTQSPSSLSASVGDRVTITCKASQDVSTAVAWYQQKPGKAPKLLIYSASYRYTGVPSRFSGSGSGTDFTLTISSLQPEDFAVYYCQQHYITPLTFGQGTKLEIKR
One may read the Kd as the constant that tells how readily two partners part at equilibrium. The low end stands for a tighter complex, the high end for a looser complex. For orientation: koff means the rate constant with which the complex falls apart. Lower therefore signals a long-lived complex. Usually kon stands for the rate constant with which the complex forms. Molecule B1 registered a Kd of 0.0272 µM, a koff of 0.000812 s⁻¹ and a kon of 29900 M⁻¹ s⁻¹.

B2: Sacituzumab analog (antibody, V domains shown)
VH: QVQLQQSGSELKKPGASVKVSCKASGYTFTNYGMNWVKQAPGQGLKWMGWINTYTGEPTYTDDFKGRFAFSLDTSVSTAYLQISSLKADDTAVYFCARGGFGSSYWYFDVWGQGSLVTVSS
VL: B1 VL with M4L, T20S, T31I, S60D, Q100A, L104V
B2 came in with a Kd of 0.042 µM, an off-rate constant (koff) of 0.00858 s⁻¹ and an on-rate (kon) of 204000 M⁻¹ s⁻¹.
